± gives the standard deviation of the averaged measurements.

Here are results for seven sequences from the supplement of paper PMC11246515.

This data set in a line: total protein half-life in vivo (active degradation + dilution); higher = more stable protein.
[1] abbreviates: wild type E. coli NCM3722, growth: C-lim chemostat, doubling time 3 h.
Setting [2] is: wild type E. coli NCM3722, growth: C-lim chemostat, doubling time 6 h.
[3] abbreviates: wild type E. coli NCM3722, growth: C-lim chemostat, doubling time 12 h.
The mark [4] stands for this setting: wild type E. coli NCM3722, growth: P-lim chemostat, doubling time 12 h.
[5] abbreviates: E. coli NCM3722 delta-clpP delta-lon delta-hslV, growth: N-lim chemostat, doubling time 6 h.
Setting [6] is: E. coli NCM3722 delta-clpP, growth: N-lim chemostat, doubling time 6 h.
[7] abbreviates: E. coli NCM3722 delta-hslV, growth: N-lim chemostat, doubling time 6 h.
Where [8] appears, read: E. coli NCM3722 delta-lon, growth: N-lim chemostat, doubling time 6 h.
Where [9] appears, read: E. coli NCM3722 delta-smpB, growth: N-lim chemostat, doubling time 6 h.
Where [10] appears, read: wild type E. coli NCM3722, growth: N-lim chemostat, doubling time 6 h.
[11] abbreviates: wild type E. coli NCM3722, growth: N-lim chemostat, doubling time 12 h.
The mark [12] stands for this setting: wild type E. coli NCM3722, growth: P-lim chemostat, doubling time 6 h.

As for “MKRVLTALAATLPFAANAADAISGAVERQPTNWQAIIMFLIFVVFTLGITYWASKRVRSRSDYYTAGGNITGFQNGLAIAGDYMSAASFLGISALVFTSGYDGLIYSLGFLVGWPIILFLIAERLRNLGRYTFADVASYRLKQGPIRILSACGSLVVVALYLIAQMVGAGKLIELLFGLNYHIAVVLVGVLMMMYVLFGGMLATTWVQIIKAVLLLFGASFMAFMVMKHVGFSFNNLFSEAMAVHPKGVDIMKPGGLVKDPISALSLGLGLMFGTAGLPHILMRFFTVSDAREARKSVFYATGFMGYFYILTFIIGFGAIMLVGANPEYKDAAGHLIGGNNMAAVHLANAVGGNLFLGFISAVAFATILAVVAGLTLAGASAVSHDLYANVFKKGATEREELRVSKITVLILGVIAIILGVLFENQNIAFMVGLAFAIAASCNFPIILLSMYWSKLTTRGAMMGGWLGLITAVVLMILGPTIWVQILGHEKAIFPYEYPALFSITVAFLGIWFFSATDNSAEGARERELFRAQFIRSQTGFGVEQGRAH”, the “total protein half-life in vivo” value is over 4 h under setting [1], 6.1 ± 0.31 h under setting [2], 12.9 ± 1.4 h under setting [3] and 8.62 h under setting [4].
As to “MIRLAPLITADVDTTTLPGGKASDAAQDFLALLSEALAGETTTDKAAPQLLVATDKPTTKGEPLISDIVSDAQQANLLIPVDETPPVINDEQSTSTPLTTAQTMALAAVADKNTTKDEKADDLNEDVTASLSALFAMLPGFDNTPKVTDAPSTVLPTEKPTLFTKLTSEQLTTAQPDDAPGTPAQPLTPLVAEAQSKAEVISTPSPVTAAASPLITPHQTQPLPTVAAPVLSAPLGSHEWQQSLSQHISLFTRQGQQSAELRLHPQDLGEVQISLKVDDNQAQIQMVSPHQHVRAALEAALPVLRTQLAESGIQLGQSNISGESFSGQQQAASQQQQSQRTANHEPLAGEDDDTLPVPVSLQGRVTGNSGVDIFA”, the “total protein half-life in vivo” value is 2.6 h under setting [5], 0.287 h under setting [1] and 0.34 h under setting [2].
With “MKLLIVEDEKKTGEYLTKGLTEAGFVVDLADNGLNGYHLAMTGDYDLIILDIMLPDVNGWDIVRMLRSANKGMPILLLTALGTIEHRVKGLELGADDYLVKPFAFAELLARVRTLLRRGAAVIIESQFQVADLMVDLVSRKVTRSGTRITLTSKEFTLLEFFLRHQGEVLPRSLIASQVWDMNFDSDTNAIDVAVKRLRGKIDNDFEPKLIQTVRGVGYMLEVPDGQ [P0ACZ8]”, the “total protein half-life in vivo” value was found to be 5.08 ± 1 h under setting [5]; 4.18 ± 0.13 h under setting [6]; 4.01 ± 0.29 h under setting [7]; 4.738 ± 0.0044 h under setting [8]; 3.77 ± 0.45 h under setting [9]; 2.77 ± 0.42 h under setting [1]. Moreover, the “total protein half-life in vivo” value is 5.62 ± 0.89 h under setting [2]; 8.61 ± 0.84 h under setting [3]; 4.53 ± 0.78 h under setting [10]; 7.44 ± 0.99 h under setting [11]; 4.5 ± 0.3 h under setting [12]; 9.01 ± 0.29 h under setting [4].
Regarding “MSETASWQPSASIPNLLKRAAIMAEIRRFFADRGVLEVETPCMSQATVTDIHLVPFETRFVGPGHSQGMNLWLMTSPEYHMKRLLVAGCGPVFQLCRSFRNEEMGRYHNPEFTMLEWYRPHYDMYRLMNEVDDLLQQVLDCPAAESLSYQQAFLRYLEIDPLSADKTQLREVAAKLDLSNVADTEEDRDTLLQLLFTFGVEPNIGKEKPTFVYHFPASQASLAQISTEDHRVAERFEVYYKGIELANGFHELTDAREQQQRFEQDNRKRAARGLPQHPIDQNLIEALKVGMPDCSGVALGVDRLVMLALGAETLAEVIAFSVDRA [P0A8N7]”, the “total protein half-life in vivo” value was determined as 5.63 h under setting [5]; 4.37 h under setting [6]; 3.95 h under setting [7]; 3.35 h under setting [8]; 3.93 ± 0.61 h under setting [9]; 2.71 ± 0.4 h under setting [1]. In addition, the “total protein half-life in vivo” value by setting is: under setting [2], 6.14 h; under setting [3], 9.92 h; under setting [10], 3.34 h; under setting [12], 6.35 ± 0.51 h; under setting [4], 14.41 ± 0.11 h.
Regarding “MTPTIELICGHRSIRHFTDEPISEAQREAIINSARATSSSSFLQCSSIIRITDKALREELVTLTGGQKHVAQAAEFWVFCADFNRHLQICPDAQLGLAEQLLLGVVDTAMMAQNALIAAESLGLGGVYIGGLRNNIEAVTKLLKLPQHVLPLFGLCLGWPADNPDLKPRLPASILVHENSYQPLDKGALAQYDEQLAEYYLTRGSNNRRDTWSDHIRRTIIKESRPFILDYLHKQGWATR”, the “total protein half-life in vivo” value worked out at 4.82 ± 1 h under setting [5]; 3.94 ± 0.13 h under setting [6]; 4.1 ± 0.27 h under setting [7]; 4.4 ± 0.54 h under setting [8]; 3.98 ± 0.23 h under setting [9]; 2.93 ± 0.35 h under setting [1]. For the same sequence, the “total protein half-life in vivo” value is, setting by setting: under setting [2], 4.8 ± 0.82 h; under setting [3], 9.24 ± 0.9 h; under setting [10], 3.89 ± 0.47 h; under setting [11], 7.96 ± 0.79 h; under setting [12], 5.01 ± 0.35 h; under setting [4], 9.93 ± 2.7 h.
With “MSKAGASLATCYGPVSADVIAKAENIRLLILDVDGVLSDGLIYMGNNGEELKAFNVRDGYGIRCALTSDIEVAIITGRKAKLVEDRCATLGITHLYQGQSNKLIAFSDLLEKLAIAPENVAYVGDDLIDWPVMEKVGLSVAVADAHPLLIPRADYVTRIAGGRGAVREVCDLLLLAQGKLDEAKGQSI [P0ABZ4]”, the “total protein half-life in vivo” value is 6.03 ± 0.62 h under setting [5]; 5.24 ± 0.48 h under setting [6]; 4.75 h under setting [7]; 4.98 ± 0.53 h under setting [8]; 4.36 ± 0.21 h under setting [9]; 4.33 ± 1.4 h under setting [2]. In addition, the “total protein half-life in vivo” value was determined as 11.2 ± 2 h under setting [3]; 4.81 h under setting [10]; 7.52 ± 0.99 h under setting [11]; 6.58 h under setting [12]; 13.2 ± 0.32 h under setting [4].
In the case of “MSEIVIRHAETRDYEAIRQIHAQPEVYCNTLQVPHPSDHMWQERLADRPGIKQLVACIDGDVVGHLTIDVQQRPRRSHVADFGICVDSRWKNRGVASALMREMIEMCDNWLRVDRIELTVFVDNAPAIKVYKKYGFEIEGTGKKYALRNGEYVDAYYMARVK”, the “total protein half-life in vivo” value reads like this: under setting [5], 4.84 ± 0.053 h; under setting [6], 3.7 ± 0.65 h; under setting [7], 4.09 ± 0.13 h; under setting [8], 4.56 ± 0.45 h; under setting [9], 3.82 ± 0.33 h; under setting [1], 3.03 ± 0.086 h. For the same sequence, the “total protein half-life in vivo” value under setting [2] was found to be 4.83 ± 0.18 h; the “total protein half-life in vivo” value under setting [3] came to 10.4 ± 0.85 h; the “total protein half-life in vivo” value under setting [10] came out at 3.91 h; the “total protein half-life in vivo” value under setting [11] is 6.73 ± 0.38 h; the “total protein half-life in vivo” value under setting [12] was 5.26 ± 0.41 h; the “total protein half-life in vivo” value under setting [4] stood at 11.3 ± 0.22 h.
